From patent US20250188188A1

Experiments:
[1] = target: active human C1s purified from human serum (CompTech, Tyler, TX, catalog number A104) (human) (UniProt P09871); test: SPR
[2] = target: recombinant human ProC1s with Arg437 mutated to glutamine (hProC1s_RQ), C-terminal spacer and 10 histidines (human); test: SPR
Chain of recombinant human ProC1s with Arg437 mutated to glutamine (hProC1s_RQ), C-terminal spacer and 10 histidines (human) (chain, as listed by the source limits assumed, change not shown, form in doubt): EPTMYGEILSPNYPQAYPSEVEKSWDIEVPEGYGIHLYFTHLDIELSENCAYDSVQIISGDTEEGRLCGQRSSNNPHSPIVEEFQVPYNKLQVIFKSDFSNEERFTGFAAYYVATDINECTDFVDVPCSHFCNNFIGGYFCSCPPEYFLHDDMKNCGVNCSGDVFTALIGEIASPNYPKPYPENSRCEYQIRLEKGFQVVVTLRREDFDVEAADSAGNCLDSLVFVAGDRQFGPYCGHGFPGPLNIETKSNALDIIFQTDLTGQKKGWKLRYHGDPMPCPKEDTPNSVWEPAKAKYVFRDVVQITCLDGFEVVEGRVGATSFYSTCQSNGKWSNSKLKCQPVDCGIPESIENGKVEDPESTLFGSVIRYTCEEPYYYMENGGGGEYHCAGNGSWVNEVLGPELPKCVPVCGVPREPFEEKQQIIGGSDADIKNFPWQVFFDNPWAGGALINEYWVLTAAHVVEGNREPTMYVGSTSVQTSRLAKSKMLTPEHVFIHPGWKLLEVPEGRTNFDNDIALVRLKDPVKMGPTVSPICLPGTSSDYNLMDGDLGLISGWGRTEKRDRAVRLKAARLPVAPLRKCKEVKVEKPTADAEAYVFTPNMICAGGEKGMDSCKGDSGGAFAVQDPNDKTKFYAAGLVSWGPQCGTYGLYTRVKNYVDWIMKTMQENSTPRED

Chain of active human C1s purified from human serum (CompTech, Tyler, TX, catalog number A104) (human) (P09871 16-437, chain 1 of 2): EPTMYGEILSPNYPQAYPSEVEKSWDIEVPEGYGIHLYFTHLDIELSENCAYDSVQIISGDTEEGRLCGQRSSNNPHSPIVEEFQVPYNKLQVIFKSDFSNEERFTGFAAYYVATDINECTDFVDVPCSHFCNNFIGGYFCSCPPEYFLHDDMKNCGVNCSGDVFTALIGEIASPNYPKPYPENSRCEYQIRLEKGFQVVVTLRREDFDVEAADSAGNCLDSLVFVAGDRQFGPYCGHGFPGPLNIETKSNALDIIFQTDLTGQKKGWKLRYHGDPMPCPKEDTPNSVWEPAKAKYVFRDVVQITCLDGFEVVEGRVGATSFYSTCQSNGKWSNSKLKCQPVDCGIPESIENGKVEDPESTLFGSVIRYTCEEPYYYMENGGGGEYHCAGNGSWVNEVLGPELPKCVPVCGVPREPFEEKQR
Chain of active human C1s purified from human serum (CompTech, Tyler, TX, catalog number A104) (human) (P09871 438-688, chain 2 of 2): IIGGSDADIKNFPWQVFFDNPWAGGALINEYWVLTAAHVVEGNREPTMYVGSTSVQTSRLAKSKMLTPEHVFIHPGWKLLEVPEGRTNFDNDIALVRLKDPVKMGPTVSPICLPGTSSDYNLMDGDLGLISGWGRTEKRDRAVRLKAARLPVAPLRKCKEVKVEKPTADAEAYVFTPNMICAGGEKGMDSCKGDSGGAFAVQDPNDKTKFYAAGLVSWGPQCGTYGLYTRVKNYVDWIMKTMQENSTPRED

Kd [1]: 0.25 nM | Kd [2]: 0.4 nM
Substance: recombinant sutimlimab/BIVV009/TNT009 (antibody)
